Measured values: paper PMC5956149

biological target: GFP-tagged MtrB (cytosolic catalytic domain of MtrB with GFP downstream) (Mycobacterium tuberculosis); assay: MST

Point of comparison: “MtrB wild type (cytosolic catalytic domain) (domain or fragment)”, Kd 1170 nM. Against it:
- MtrB^H305Q (phosphorylation site mutant, cytosolic catalytic domain) (domain or fragment) — 2.9-fold lower, 410 nM
- MtrB^N419D (mutant defective in ATP binding, cytosolic catalytic domain) (domain or fragment) — 1.5-fold lower, 770 nM
